Measured values published in article PMC5577263.

Target: recombinant mouse α-synuclein amyloid fibrils (mouse) (UniProt O55042)
Experiment: SPR

recombinant full-length mouse PrP MoPrP(23-231) (from UniProt P04925 23-231) (natural protein)
KD, first of two (ratio of one of two koff values to kon): 3.1 nM | KD, second of two (ratio of one of two koff values to kon): 36.5 nM
